Reference: the supplement of paper PMC11246515
± gives the standard deviation of the averaged measurements.

Experiment: total protein half-life in vivo (active degradation + dilution); higher = more stable protein
[1] = E. coli NCM3722 delta-clpP delta-lon delta-hslV, growth: N-lim chemostat, doubling time 6 h
[2] = E. coli NCM3722 delta-clpP, growth: N-lim chemostat, doubling time 6 h
[3] = E. coli NCM3722 delta-hslV, growth: N-lim chemostat, doubling time 6 h
[4] = E. coli NCM3722 delta-lon, growth: N-lim chemostat, doubling time 6 h
[5] = E. coli NCM3722 delta-smpB, growth: N-lim chemostat, doubling time 6 h
[6] = wild type E. coli NCM3722, growth: C-lim chemostat, doubling time 3 h
[7] = wild type E. coli NCM3722, growth: C-lim chemostat, doubling time 6 h
[8] = wild type E. coli NCM3722, growth: C-lim chemostat, doubling time 12 h
[9] = wild type E. coli NCM3722, growth: N-lim chemostat, doubling time 6 h
[10] = wild type E. coli NCM3722, growth: N-lim chemostat, doubling time 12 h
[11] = wild type E. coli NCM3722, growth: P-lim chemostat, doubling time 6 h
[12] = wild type E. coli NCM3722, growth: P-lim chemostat, doubling time 12 h

For “MTEPLKPRIDFDGPLEVDQNPKFRAQQTFDENQAQNFAPATLDEAQEEEGQVEAVMDAALRPKRSLWRKMVMGGLALFGASVVGQGVQWTMNAWQTQDWVALGGCAAGALIIGAGVGSVVTEWRRLWRLRQRAHERDEARDLLHSHGTGKGRAFCEKLAQQAGIDQSHPALQRWYASIHETQNDREVVSLYAHLVQPVLDAQARREISRSAAESTLMIAVSPLALVDMAFIAWRNLRLINRIATLYGIELGYYSRLRLFKLVLLNIAFAGASELVREVGMDWMSQDLAARLSTRAAQGIGAGLLTARLGIKAMELCRPLPWIDDDKPRLGDFRRQLIGQVKETLQKGKTPSEK [P0A8R7]”, the “total protein half-life in vivo” value [1] was 5.42 ± 0.51 h, the “total protein half-life in vivo” value [2] was 5.1 ± 0.24 h and the “total protein half-life in vivo” value [3] was 4.51 ± 0.62 h. The “total protein half-life in vivo” value [4] was 4.85 ± 0.12 h, the “total protein half-life in vivo” value [5] was 4.83 ± 0.29 h and the “total protein half-life in vivo” value [6] was 2.96 ± 0.27 h. For the same sequence, the “total protein half-life in vivo” value [7] was 4.75 ± 0.28 h, the “total protein half-life in vivo” value [8] was 11.2 ± 0.13 h and the “total protein half-life in vivo” value [9] was 5.23 ± 0.17 h. The “total protein half-life in vivo” value [10] was 8.5 ± 0.23 h, the “total protein half-life in vivo” value [11] was 5.02 ± 0.48 h and the “total protein half-life in vivo” value [12] was 8.52 ± 0.38 h.

For “MTEPLTETPELSAKYAWFFDLDGTLAEIKPHPDQVVVPDNILQGLQLLATASDGALALISGRSMVELDALAKPYRFPLAGVHGAERRDINGKTHIVHLPDAIARDISVQLHTVIAQYPGAELEAKGMAFALHYRQAPQHEDALMTLAQRITQIWPQMALQQGKCVVEIKPRGTSKGEAIAAFMQEAPFIGRTPVFLGDDLTDESGFAVVNRLGGMSVKIGTGATQASWRLAGVPDVWSWLEMITTALQQKRENNRSDDYESFSRSI”, the “total protein half-life in vivo” value [1] was 5.34 ± 2.1 h, the “total protein half-life in vivo” value [2] was 3.13 ± 0.27 h and the “total protein half-life in vivo” value [3] was 2.4 ± 0.1 h. For the same sequence, the “total protein half-life in vivo” value [4] was 2.67 ± 0.028 h, the “total protein half-life in vivo” value [5] was 2.32 ± 0.11 h and the “total protein half-life in vivo” value [6] was 2.55 h. The “total protein half-life in vivo” value [7] was 4.3 ± 0.26 h, the “total protein half-life in vivo” value [8] was 6.12 ± 0.22 h and the “total protein half-life in vivo” value [9] was 2.5 ± 0.13 h. For the same sequence, the “total protein half-life in vivo” value [10] was 3.59 ± 0.55 h, the “total protein half-life in vivo” value [11] was 3.2 ± 1 h and the “total protein half-life in vivo” value [12] was 6.94 ± 0.087 h.

With “MTESVARLRGEQLTLGYGKYTVAENLTVEIPDGHFTAIIGPNGCGKSTLLRTLSRLMTPAHGHVWLDGEHIQHYASKEVARRIGLLAQNATTPGDITVQELVARGRYPHQPLFTRWRKEDEEAVTKAMQATGITHLADQSVDTLSGGQRQRAWIAMVLAQETAIMLLDEPTTWLDISHQIDLLELLSELNREKGYTLAAVLHDLNQACRYASHLIALREGKIVAQGAPKEIVTAELIERIYGLRCMIIDDPVAGTPLVVPLGRTAPSTANS” the “total protein half-life in vivo” value [5] was 3.69 h, the “total protein half-life in vivo” value [6] was 3.78 h and the “total protein half-life in vivo” value [7] was 5.57 h. For the same sequence, the “total protein half-life in vivo” value [8] was > 16 h and the “total protein half-life in vivo” value [10] was 7.66 h.

With “MTETIKVSESLELHAVAENHVKPLYQLICKNKTWLQQSLNWPQFVQSEEDTRKTVQGNVMLHQRGYAKMFMIFKEDELIGVISFNRIEPLNKTAEIGYWLDESHQGQGIISQALQALIHHYAQSGELRRFVIKCRVDNPQSNQVALRNGFILEGCLKQAEFLNDAYDDVNLYARIIDSQ” the “total protein half-life in vivo” value [1] was 4.21 ± 0.68 h, the “total protein half-life in vivo” value [2] was 4.2 ± 0.35 h and the “total protein half-life in vivo” value [3] was 3.75 ± 0.27 h. For the same sequence, the “total protein half-life in vivo” value [4] was 3.31 ± 0.19 h, the “total protein half-life in vivo” value [5] was 4.22 ± 0.22 h and the “total protein half-life in vivo” value [6] was 3.18 ± 0.37 h. For the same sequence, the “total protein half-life in vivo” value [7] was 5.79 ± 0.19 h, the “total protein half-life in vivo” value [8] was 8.82 ± 2.3 h and the “total protein half-life in vivo” value [9] was 4.47 h. For the same sequence, the “total protein half-life in vivo” value [10] was 6.48 ± 0.098 h, the “total protein half-life in vivo” value [11] was 5.61 ± 0.16 h and the “total protein half-life in vivo” value [12] was 13.7 ± 0.43 h.

With “MTFIKGLPLMLLTISLGCNAAVQPDRTRIVFNANDKATSLRIENQSDKLPYLAYSWIENEKGEKSDALLVALPPIQRLEPKATSQVRVVKQASTTQLPGDRETLFFYNMREIPPAPDKSSDHAILQVAIQSRIKLFWRPAALRKKAGEKVELQLQVSQQGNQLTLKNPTAYYLTIAYLGRNEKGVLPGFKTVMVAPFSTVNTNTGSYSGSQFYLGYMDDYGALRMTTLNCSGQCRLQAVEAK” the “total protein half-life in vivo” value [1] was > 8 h and the “total protein half-life in vivo” value [10] was 14.3 h.

For “MTGMTNVTKLASEPSGQEFLVFTLGDEEYGIDILKVQEIRGYDQVTRIANTPAFIKGVTNLRGVIVPIVDLRIKFSQVDVDYNDNTVVIVLNLGQRVVGIVVDGVSDVLSLTAEQIRPAPEFAVTLSTEYLTGLGALGDRMLILVNIEKLLNSEEMALLDSAASEVA [P0A964]”, the “total protein half-life in vivo” value [1] was 5.19 ± 0.61 h, the “total protein half-life in vivo” value [2] was 4.56 ± 0.37 h and the “total protein half-life in vivo” value [3] was 5.25 h. The “total protein half-life in vivo” value [4] was 5.4 ± 0.52 h, the “total protein half-life in vivo” value [5] was > 8 h and the “total protein half-life in vivo” value [6] was 1.741 ± 0.013 h. The “total protein half-life in vivo” value [7] was 1.86 ± 0.086 h, the “total protein half-life in vivo” value [8] was 3.67 ± 1.6 h and the “total protein half-life in vivo” value [9] was 1.74 h. For the same sequence, the “total protein half-life in vivo” value [10] was 2.23 h, the “total protein half-life in vivo” value [11] was 0.859 h and the “total protein half-life in vivo” value [12] was 9.75 h.

With “MTGQSSSQAATPIQWWKPALFFLVVIAGLWYVKWEPYYGKAFTAAETHSIGKSILAQADANPWQAALDYAMIYFLAVWKAAVLGVILGSLIQVLIPRDWLLRTLGQSRFRGTLLGTLFSLPGMMCTCCAAPVAAGMRRQQVSMGGALAFWMGNPVLNPATLVFMGFVLGWGFAAIRLVAGLVMVLLIATLVQKWVRETPQTQAPVEIDIPEAQGGFFSRWGRALWTLFWSTIPVYILAVLVLGAARVWLFPHADGAVDNSLMWVVAMAVAGCLFVIPTAAEIPIVQTMMLAGMGTAPALALLMTLPAVSLPSLIMLRKAFPAKALWLTGAMVAVSGVIVGGLALLF” the “total protein half-life in vivo” value [5] was 4.43 ± 0.43 h and the “total protein half-life in vivo” value [10] was 5.72 h.

With “MTHFSQQDNFSVAARVLGALFYYAPESAEAAPLVAVLTSDGWETQWPLPEASLAPLVTAFQTQCEETHAQAWQRLFVGPWALPSPPWGSVWLDRESVLFGDSTLALRQWMREKGIQFEMKQNEPEDHFGSLLLMAAWLAENGRQTECEELLAWHLFPWSTRFLDVFIEKAEHPFYRALGELARLTLAQWQSQLLIPVAVKPLFR” the “total protein half-life in vivo” value [1] was 3.98 ± 0.19 h, the “total protein half-life in vivo” value [2] was 4.54 ± 1.1 h and the “total protein half-life in vivo” value [3] was 4.18 ± 0.73 h. The “total protein half-life in vivo” value [4] was 5.74 ± 1.5 h, the “total protein half-life in vivo” value [5] was 4.5 ± 0.51 h and the “total protein half-life in vivo” value [6] was 3 ± 0.17 h. For the same sequence, the “total protein half-life in vivo” value [7] was 5.45 h, the “total protein half-life in vivo” value [8] was 11.7 ± 1.3 h and the “total protein half-life in vivo” value [9] was 4.4 ± 0.41 h. For the same sequence, the “total protein half-life in vivo” value [10] was 7.72 ± 1.9 h, the “total protein half-life in vivo” value [11] was 5.41 ± 0.39 h and the “total protein half-life in vivo” value [12] was 11.3 ± 0.19 h.
